B1: Serine/threonine-protein kinase Sgk3 (Homo sapiens), Q96BR1 (parent)
chain: MQRDHTMDYKESCPSVSIPSSDEHREKKKRFTVYKVLVSVGRSEWFVFRRYAEFDKLYNTLKKQFPAMALKIPAKRIFGDNFDPDFIKQRRAGLNEFIQNLVRYPELYNHPDVRAFLQMDSPKHQSDPSEDEDERSSQKLHSTSQNINLGPSGNPHAKPTDFDFLKVIGKGSFGKVLLAKRKLDGKFYAVKVLQKKIVLNRKEQKHIMAERNVLLKNVKHPFLVGLHYSFQTTEKLYFVLDFVNGGELFFHLQRERSFPEHRARFYAAEIASALGYLHSIKIVYRDLKPENILLDSVGHVVLTDFGLCKEGIAISDTTTTFCGTPEYLAPEVIRKQPYDNTVDWWCLGAVLYEMLYGLPPFYCRDVAEMYDNILHKPLSLRPGVSLTAWSILEELLEKDRQNRLGAKEDFLEIQNHPFFESLSWADLVQKKIPPPFNPNVAGPDDIRNFDTAFTEETVPYSVCVSSDYSIVNASVLEADDAFVGFSYAPPSEDLFL

Variants of: B1
Settings: with itch_human ITCH

effect of a mutation on the interaction | Variant
decreasing interaction | Y362A

Reference: IntAct's records for PubMed 16888620
